Results: patent publication US20120039904A1 (Kyowa Kirin, published 2012)

T1: human ASCT2-myc/His (fusion protein in which myc/His was added to the C-terminal of human ASCT2), expressed … (human, UniProt Q15758 1-541)
T1 construct: Amino acid transporter with C-terminal myc/His tag, stably expressed in CHO/DG44 cells; cell lysates of these cells were used for Western blotting and immunoprecipitation; also called ASCT2/CHO; human ASCT2-myc/His gene-introduced CHO cell
T1 sequence: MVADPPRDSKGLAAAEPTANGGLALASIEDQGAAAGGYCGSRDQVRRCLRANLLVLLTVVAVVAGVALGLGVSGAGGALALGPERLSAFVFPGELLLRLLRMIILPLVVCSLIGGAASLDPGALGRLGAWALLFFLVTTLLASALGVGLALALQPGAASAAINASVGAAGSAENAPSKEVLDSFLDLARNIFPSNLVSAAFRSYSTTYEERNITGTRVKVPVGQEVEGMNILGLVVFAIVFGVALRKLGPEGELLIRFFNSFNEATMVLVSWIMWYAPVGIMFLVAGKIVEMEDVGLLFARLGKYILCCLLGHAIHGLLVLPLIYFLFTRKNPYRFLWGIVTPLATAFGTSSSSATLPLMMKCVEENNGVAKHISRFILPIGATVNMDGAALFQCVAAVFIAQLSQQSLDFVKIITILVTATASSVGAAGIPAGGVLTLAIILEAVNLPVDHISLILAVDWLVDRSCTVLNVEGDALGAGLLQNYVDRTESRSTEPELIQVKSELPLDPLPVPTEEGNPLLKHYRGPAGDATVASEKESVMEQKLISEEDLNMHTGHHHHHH

T2: human ASCT2 (system ASC amino acid transporter 2), endogenous on human tumour cell lines (human, UniProt Q15758 1-541)
T2 construct: Endogenous ASCT2 of cell lines KMS-11 (stated to express ASCT2 mRNA), WiDr and OPM-2; also called SLC1A5; ASCT2 on KMS-11, OPM-2, WiDr cells
T2 sequence: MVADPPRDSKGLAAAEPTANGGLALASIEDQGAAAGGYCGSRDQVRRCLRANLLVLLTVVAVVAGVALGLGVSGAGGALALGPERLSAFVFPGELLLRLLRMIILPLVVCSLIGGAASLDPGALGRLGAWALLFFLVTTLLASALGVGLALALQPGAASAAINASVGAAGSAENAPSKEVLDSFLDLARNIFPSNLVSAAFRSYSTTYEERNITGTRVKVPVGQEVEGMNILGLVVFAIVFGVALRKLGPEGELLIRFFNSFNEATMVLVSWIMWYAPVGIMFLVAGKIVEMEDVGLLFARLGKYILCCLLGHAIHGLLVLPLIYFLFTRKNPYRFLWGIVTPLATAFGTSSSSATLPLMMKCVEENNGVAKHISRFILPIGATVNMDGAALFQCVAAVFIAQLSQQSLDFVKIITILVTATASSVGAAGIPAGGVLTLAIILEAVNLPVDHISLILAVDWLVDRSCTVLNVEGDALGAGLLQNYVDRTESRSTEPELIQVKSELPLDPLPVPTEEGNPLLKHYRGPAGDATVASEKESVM


Experiments:
[1] = molecular target: T1, human ASCT2-myc/His (fusion protein in …); assay: flow cytometry on human ASCT2-myc/His gene-introduced CHO cells
[2] = molecular target: T2, human ASCT2 (system ASC amino acid …); assay: flow cytometry on KMS-11 cells
[3] = molecular target: T2, human ASCT2 (system ASC amino acid …); assay: flow cytometry on OPM-2 cells
Method: Each of the human ASCT2-myc/His gene-introduced CHO cell obtained in Example 2, and the multiple myeloma cell line OPM-2 (DSMZ Accession No. ACC50) was cultured in a 5% CO₂ incubator for 3 to 4 days at 37° C. The human ASCT2-myc/His gene-introduced CHO cells were detached with a 0.02% EDTA solution (manufactured by Nacalai Tesque), and in order to avoid the non-specific adsorption of antibodies, the cells were blocked for 30 minutes at ice temperature using 1% BSA-PBS.
The cells were seeded into a 96-well U-bottom plate so as to give a density of 1×10⁵ to 5×10⁵ cells/100 μL/well. The plates were centrifugation at 1,500 rpm for 5 minutes (05PR-22, manufactured by Hitachi Koki), and then the supernatant was removed.
As the primary antibody, the purified antibody which was a test substance was diluted to give a final concentration of 0.01 μg/mL to 10 μg/mL in 1% BSA-PBS, and dispensed to the plate at 100 μL/well, followed by reaction at ice temperature for 60 minutes. After washing the cells with 1% BSA-PBS, FITC-labeled anti-human immunoglobulin G (H+L) (manufactured by Jackson Laboratories) diluted with 1% BSA-PBS was added as the secondary antibody, followed by reaction at ice temperature for 30 minutes protected from light. The cells were washed with 1% BSA-PBS and then suspended in PBS. The fluorescence intensity of the cells was measured by a flow cytometer (Cytomics FC500 MPL, manufactured by Beckman Coulter).

Row | binding result [1] | binding result [2] | binding result [3] | Binder
1 | binds |  | binds | anti-ASCT2 human chimeric antibody cKM4008 (antibody, V domains shown, VH and VL of KM4008 joined to human CH and CL of vector pKANTEX93; SDS-PAGE pattern of the IgG class) VH: QIQLVQSGPELKKPGETVKISCKASGYTFTTFGMSWVKQVPGKGLKWMGWIHTYAGVPIYGDDFKGRFAFSLETSASTAYLQINNVKNEDTATYFCARRSDNYRYFFDYWGQGTTLTVSS VL: DIQMTQTTSSLSASLGDRVTISCRASQDIRNYLNWYQRKPHGTVKLLIYYTSRLHSGVPSRFSGSGSGTDYSLTISNLEQEDIATYFCQQGHTLPPTFGGGTKLEIKR
2 | binds |  | binds | anti-ASCT2 human chimeric antibody cKM4018 (antibody, V domains shown, VH and VL of KM4018 joined to human CH and CL of vector pKANTEX93; IgG class) VH: EVQLVESGGGLVQSGRSIRLSCAASGFSFSNYYMAWVRQAPSKGLEWVASITKGGGNTYYRDSVKGRFTFSRDNAKSTLYLQMDSLRSEDTATYYCARQVTIAAVSTSYFDSWGQGVMVTVSS VL: DIVLTQSPALAVSLGQRATISCKTNQKVDYYGNSYVYWYQQKPGQQPKLLIYLASNLASGIPARFSGRGSGTDFTLTIDPVEADDTATYYCQQSRNLPYTFGAGTKLELKR

More lines, now with the values behind:

Row | Binder | binding result [1] | binding result [2] | binding result [3]
3 | anti-ASCT2 humanized antibody KM4008HV2LV3 (antibody, V domains shown, Expressed from vector pKANTEX93 with human CH and CL; SDS-PAGE pattern of an IgG class antibody) VH: QVQLVQSGSELKKPGAPVKVSCKASGYTFSTFGMSWVRQAPGQGLKWMGWIHTYAGVPIYGDDFKGRFVFSLDTSVSTAYLQISSLKAEDTAVYFCARRSDNYRYFFDYWGQGTTVTVSS VL: DIQMTQSPSSLSASLGDRVTITCRASQDIRNYLNWYQQKPGKAPKLLIYYTSRLHSGVPSRFSGSGSGTDYTLTISSLQPEDFATYFCQQGHTLPPTFGQGTKLEIK | binds | binds | 
4 | anti-ASCT2 humanized antibody KM4008HV10LV3 (antibody, V domains shown, Expressed from vector pKANTEX93 with human CH and CL; SDS-PAGE pattern of an IgG class antibody) VH: QIQLVQSGPELKKPGAPVKISCKASGYTFTTFGMSWVKQAPGQGLKWMGWIHTYAGVPIYGDDFKGRFVFSLDTSVSTAYLQISSVKAEDTATYFCARRSDNYRYFFDYWGQGTTLTVSS VL: DIQMTQSPSSLSASLGDRVTITCRASQDIRNYLNWYQQKPGKAPKLLIYYTSRLHSGVPSRFSGSGSGTDYTLTISSLQPEDFATYFCQQGHTLPPTFGQGTKLEIK | binds | binds | 
5 | anti-ASCT2 human chimeric antibody cKM4012 (antibody, V domains shown, VH and VL of KM4012 joined to human CH and CL of vector pKANTEX93; IgG class) VH: QIQLVQSGPELKKPGETVKISCKASGYTFTTYGMSWVKQTPGKGLKWMGWIHTYSGVPIYGDDSKGRFAFSLETSGSIAYLQINNVKNEDTATYFCARRSDGYRYFFDYWGQGTTLTVSS VL: DIQMTQITSSLSASLGDRVTISCRASQDIRNYLNWYQQKPDGTVKLLIYYTSRLHSGVPSRFSGSGSGTDYSLTISNLEQEDIATYFCQQGNTLPPTFGGGTKLEIKR | binds |  | binds
